This is an account of results in article PMC2680711.

The assay deals with Alexa-546-labeled H3-H4(E63C) (UniProt P61830). As to the kind of experiment: other fluorescence titration.

Chain of Vps75_(1−223) (Vps75 lacking the C-terminal acidic domain) (P53853 1-223): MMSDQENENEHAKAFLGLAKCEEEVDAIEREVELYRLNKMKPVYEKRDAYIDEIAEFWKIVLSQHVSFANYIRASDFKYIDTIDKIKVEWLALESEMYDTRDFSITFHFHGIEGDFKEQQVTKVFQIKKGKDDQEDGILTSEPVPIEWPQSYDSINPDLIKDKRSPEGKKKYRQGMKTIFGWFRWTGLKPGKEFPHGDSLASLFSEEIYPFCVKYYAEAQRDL

A word on the Kd: it is the equilibrium constant for the complex coming apart. For the substance “Rtt109 (recombinant, purified) (from UniProt Q07794 1-436) (enzyme)”, the Kd came to 150 nM.
As for “Vps75_(1−223) (Vps75 lacking the C-terminal acidic domain) (from UniProt P53853 1-223) (domain or fragment)”, the Kd came to 13 nM.
